From the DeepSol protein solubility set

Assay: soluble on expression in E. coli; label from the status in PepcDB or PDB records

| Sequence | soluble on expression in E. coli |
| --- | --- |
| MAHHHHHHMYTRDVSDRISGISAADLAQRLVEVSARNTARDGALSPSVCQRPLPHCVSALLWDAKCAGAAPPRTALLRGDVVDMTSSVSDATLSCVALSDDVRFRFARSRHRRLTGILSSTAAPLPPRMCRVDVTHFYWMDECAPGLTYDDQSVLSTVLQKRIVQWAVSAFARNPLLRNISLQALEAVFPALLAFSPREREELLKHAAELLGQGTLIWYGQAMIKQFHESAASLALSLLTSSEERCSAALLFALATAQEVMGARRDDAAQALRFLLEVYGVRGVALSPALTTAALLVSRATVPLCTRRCLGAGSRQHHLLQPYLFPLSCAHVETLPWIPHNTHTSSPEHLRELVRRAREAAAAVLATAAPCTATTAQKRHAHEDDVNAFFSANHALEIHRDTLVTHASGDVPSSLPALKAADSGAAARSRLLEAAPKWWEQEAKASNSDTAREETELKLHVKAAAAELREPHGSDHALLAVIHRTRKRQRNREQPTAQTVEAALEGAAIRLKRRAFLQLVDIFALNAHTEDRDGKARQYLEQHHVAEAQIRDFTTLLSSTRKT | not soluble |
| MSLTTPSKKTLLFDLDGTLVDSFPGIRTSFLHTLHEKNWEIPSEERISQVPGPPMEWTFQDLGMTPEQAQDALQTYLEHYGQVGWDLSEAFPGMRDLLIRLKYEGFRLCTATSKGEFFAEKVLRKFEMFDLFEFMGAATDNGNRRSKSAVIKHVLDSVGLDEPNDILMIGDRSHDIEGSSEFGIDCVAVTWGYGSKTEWDAARYTVSTAEELERIIHDWAEGHHHHHH | soluble |
| MGSDKIHHHHHHMRPDCTDFRQLFLDDVPMMDMRAPVEFAKGAFPGVVNLPLMNDQERQKVGTCYKQQGQAAAIALGHQLVSGATKQARLEAWAAFAKAHPDGYLYCFRGGLRSQIVQGWLRDEAGIQYPRVKGGYKAMRTFLLETTQQAVEQCDFVLVGGLTGTGKTDVLHQLDNVLDLEGHANHRGSSFGKRATAQPAQIDFENQLAIDVLKKRARGIGQFVLEDEGRIVGSCTVPLELYQGMQHYPLVWLEDSFTNRVERILRDYVVNLSAEFKAVHGEEDGPRLFAERMLQSMANIYKRLGGERHQRLSEMLREALQEQQRSGAVDLHRGWIEGLLNEYYDPMYAYQRAAKAERIEFAGDAVEVREYLKARALRQPRK | not soluble |
| GMTKLPATSDIYISFFMFTTNLQPDNLDYRRIVVAHIKKLQRFGYSGFEFPIAPGLPENYAQDLENYTNLRHYLDSEGLENVKISTNVGATRTFDPSSNYPEQRQEALEYLKSRVDITAALGGEIMMGPIVIPYGVFPTTDFNEPIWSDELQEHLKVRYANAQPILDKLGEYAEIKKVKLAIEPITHWETPGPNKLSQLIEFLKGVKSKQVGVVIDSAHEILDGEGPEIFKTQVEYLAQQGRLHYVQVSPPDRGALHTSWLPWKSFLTPIVKVYDGPIAVEIFNAIPAFTNSLRLTRRKFWIPDEDPPNQYPNAYDIADEAIKVTRKELKKIGSK | soluble |
| MCPGVMGVGSTQSIVLVPGFPKPSTMNVQWKAEGAASQKDASTHKDWSSQVSSITCKPEKPETLPLGHFINGDFIVIIPAGGRALLSATGNAL | not soluble |
| MGSDKIHHHHHHMKRSEKKSMSSALKNGIMERTQPEKVVQMQGTADLSTSKLGTKKYWDELYALELENFRRNPQDTGDCWFSDSDAEQKMIDFLVDNIGAYRISENASVVDLGTGNGHMLFELHQTEFQGKLVGIDYSEESVKLASNIAEATGVDNFISFQQADIFSGDWKPGKYDIVLDKGTLDAISLSGMKINGKLDVVDVYAGVVERILKKDGIFLITSCNFTQDELVKIIETDNLKMWKTIKYPVFQFGGVQGATICSVAFVKQN | not soluble |
| MGSDKIHHHHHHMYLLDSTIAKKIVSRTMKIIGHNINVMNGQGVILGSGDPKRIGSTHEGALLAIAQNRNVELSDEVASGLHGVKPGINLPLHYQGQIIGVIGITGAPDELAHYGELLKMTAEMIVEQANQQDKLQWENRQREEFILQLIKANTDDEQLQRWAKQLDIDINLPRVAAIIEISEKLSAPIHKTASLINAAASESSVDERNPRVSETLKQVLHLLQNPDRGNLIAMTSMSQLVILKPAFLDGKQWDPELENQRIDKLLQRLPAQMGLHFKIALGHFFPEKGGIARSYQTAQETLNLGKQLNPEGTKYLFEDYSLQVLLSGLKHDWRGQALASPYQQLTQADKNGQLRKTLAAYITHFGDAQQCANALFIHRNTLRYRLDKIQQLTQTDIQSLHGLLSLYLGQLLDTSANPR | not soluble |
| MSLVHPAGMAIMISGGIVQKIAPSDDILSEFAPWYPANSVSTDVEVIDIGEMSVVPGFVDSHTHLPWSGDRTNELTMRLRGKTYREIAQSGGGIMKTVSHTRSTPKRNLVASGISRVQECMRNGTTTLEAKSGYGLDLDSEVKLLEAISEIDRSTAIDIRATWLGAHDFPPEMGREDYVEHLISDQLPVISELSLARWVDVFCEQGWFTNEQTEDIVKASKDYGMKSRLHVDEFVDSGGLALAAELGSVSADHVACSNDDSRVSAAESGTVQTFLPGTPYVLGKSLELPIKKCITEDWPFSIATDFNPNCPITSLPLIGSFVTHRLGVDPIASLVAVTRNPATTMFDEEEPRGVISEGSIADMNVLWSSSADSWCQTPGSSPVRDTIKNGIIVNSNKTYEGHHHHHH | soluble |
| MGSDKIHHHHHHMIGVAEVVLDVRDLRIYYRTLYGYVKAVDGVSFDIKRGEILGIAGESGCGKSTLGNGLILLKPPMKYMGGEAILDGKNIMALSPKELRKVRYEKISIIPQYAMDAMNPTKKIKQIIDDLLHEHGESFERKKDVIEERLEIVNLGKKVLNMYPIELSGGMKQRMVMVISTLMNPDVLIADEITSALDVSSQRSVIQMLYEMREKEIMGSLAFITHDLSVLYQIADKVMVLYAGRVAEISPMEDIIQEPLHPYTKMLLSSLPKIGVRYSQTKLKGIPGYPPSLLNIGPGCRFRDRCPYAFEKCEQDPPVFDVDGRKVSCWLFERGDAN | not soluble |
| MGSSHHHHHHSSGLVPRGSHMKKRQLGTSDLHVSELGFGCMSLGTDETKARRIMDEVLELGINYLDTADLYNQGLNEQFVGKALKGRRQDIILATKVGNRFEQGKEGWWWDPSKAYIKEAVKDSLRRLQTDYIDLYQLHGGTIDDPIDETIEAFEELKQEGVIRYYGISSIRPNVIKEYLKRSNIVSIMMQYSILDRRPEEWFPLIQEHGVSVVVRGPVARGLLSRRPLPEGEGYLNYRYDELKLLRESLPTDRPLHELALQYCLAHDVVATVAAGASSIDQVKANVQAVEATPLTAEERQHIQKLAKAAVYEQHRE | soluble |
| MSLRSVVSFNEGWSFHEGFGQRLLENFDAAKPVSLPHTAVELPFNYFDEKSYQRAFTYQKVLRWLPEFEGREVSLVFDAAMADSVVYLNGEEITAHKDGYTPFEARLTGKLLKGENLVTVKIDGSENPAIPPFGGRIDYLTYAGIYRDVWLKVTDPVSIRNLKIETADVLAPHKSASIRVDLANPEGRSFSATLTAALKQADGTVIATAATETIGNRTTLSLGGLTGITLWDITNPTLYEVTVELRTEHGSDRLSTRFGFRTAEFTPEGFLLNGKPLKLRGLNRHQAFPYVGYAAGRSAQERDADIMKSVLKCNIVRTSHYPQSKWFLDRCDAIGLLVFEEIPGWQHIGDADWQKESIENVRRMIERDWNHPSIIIWGVRINESQDSHDFYAETNRLARELDSTRQTGGVRYITESELLEDVYTMNDFILGNEELPGANRPRTVLRGQQENTGLSRKVPYLITEFNGHMHPTKIYDQEQRQAEHVRRHLEVLNAAYGDPDISGAIGWCMFDYNTHKDFGSGDRVCYHGVMDMFREPKFAAYAYISQCEPSEEIVMKPVTFWARGERNIGGVLPLIILTNCDEVELQYGALSKRVGPDRENYPHLPHPPVVLDHRHFTADELGTWGLEWIDGALTGFIAGEAVVSLNLAADPLPTTLEMVADSSTLKTRERDSTRVIIRALDQCGQRLPFMNDSISLKVHGPARIVGPTNVPLQGGTSGFWLEATGLVGEITVEAVSSRFAPVTLNVTAVAEGHHHHHH | soluble |
| MAHHHHHHMQIGLAGCSSSLHTSPSSGSAAGSGFYGARGQEAAASATVNSSGANGLCAGATMSSPSATPTLPPLPSTMDEPVDLFPLTPSVSMLQRHSKRSGRLLNESETMQEKHGQEYRFLVPWLAYAIDCTIAAHEVLRQKHGIPAHVSSPASPSANTLNGATDVKRSSRGSANGDPTYADTAGGSSGSGQAALPSPQAELNAFSTREVPAISVHDYLKRIVKYTYVSPSVLVCGCLYLDRLLCMHPCMLLHPYNVFKLFLTSTRMASKIMDTRTLNNHDFSVVGGVTNDDLNALEFLMVELLQNRLYFSRDTFDEYCRPLRLQAAHLTEEASDWGAETAMETPVETRSGVQHQPTRPFLARCNGSNTRSRRSSILSQNEYSVSIASQSGVSPLRSASRPAFPPSASTARSISVDTESIGPARAPASRGGSASTSAPRHPLGTSYSPALPHVPHTAANGGSSPALGAMGGLSGRGASGEDMLRVATHTNSIYQSSNGVWTGQTPPDSVTVLVGVEERGDERARSISLSAPRCGATTSWDATGRPSRLLAASTSTMAGLCTAALNGGRGGYESSPNVCAAPTYNRASASSSRGITASAEDFGAGSMVISYSDRTPTRRAFSHASREGIALPPVVCSGRSERSASVIGVAAQGQRLPPPPDQPRV | not soluble |
| MSTRPEVFDLIVIGGGPGGSTLASFVAMRGHRVLLLEREAFPRHQIGESLLPATVHGICAMLGLTDEMKRAGFPIKRGGTFRWGKEPEPWTFGFTRHPDDPYGFAYQVERARFDDMLLRNSERKGVDVRERHEVIDVLFEGERAVGVRYRNTEGVELMAHARFIVDASGNRTRVSQAVGERVYSRFFQNVALYGYFENGKRLPAPRQGNILSAAFQDGWFWYIPLSDTLTSVGAVVSREAAEAIKDGHEAALLRYIDRCPIIKEYLAPATRVTTGDYGEIRIRKDYSYCNTSFWKNGMALVGDAACFVDPVFSSGVHLATYSALLVARAINTCLAGEMSEQRCFEEFERRYRREYGNFYQFLVAFYDMNQDTDSYFWSARKIINTEERANEAFVRLIAGRSNLDEPVFQSVAKDFFTEREGFGAWFGGLVTSMAKGDGGGLMVGEGATDATESTGFAPENFMQGFTREITELQHLAMFGEDRGPETPLWSGGLVPSRDGLAWAVESGEDAAG | soluble |
| MSLTSVVFLNPGNSTETFWVSYSQFMQAAARDLGLDLRILYAERDPQNTLQQARELFQGRDKPDYLMLVNEQYVAPQILRLSQGSGIKLFIVNSPLTLDQRELIGQSRQNYSDWIGSMVGDDEEAGYRMLKELLHKLGPVPAGHGIELLAFSGLKVTPAAQLRERGLRRALAEHPQVHLRQLVYGEWNRERAYRQAQQLLKRYPKTQLVWSANDEMALGAMQAARELGRKPGTDLLFSGVNSSPEALQALIDGKLSVLEAGHFTLGGWALVALHDDALGLDARRLGGPDWQLSLFQEGHHHHHH | not soluble |
| MQSIPIKNVGESRLVDPFQRQYYYLRLSITDQCNFRCTYCLPDGYQPEANKPSFLTLKEITHLAQAFAEMGTEKIRLTGGEPTLRKDFISIAESITNIDGIRQLAVTTNGYRMAKDVADWKKAGITSINVSVDSLDPKMFHQITGINKFDDVMRGIDRAFEVGYNKVKVNSVLMKNLNDKEFEQFLAWVKDRPIQMRFIELMQTGEMDSFFDKFHLSGQVLADKLLKNGWTLQHKSHTDGPAKVFTHPDYAGEIGLIMPYEKNFCASCNRLRVSAKGKLHLCLFGEEGIELRDLLQSHEQQGILQARIFAALQGKREHHYLHIGDTGVRNHLASIGGMGHHHHHHSH | not soluble |
| MLLSKKSEYKTLSTVEHPQYIVFCDFDETYFPHTIDEQKQQDIYELEDYLEQKSKDGELIIGWVTGSSIESILDKMGRGKFRYFPHFIASDLGTEITYFSEHNFGQQDNKWNSRINEGFSKEKVEKLVKQLHENHNILLNPQTQLGKSRYKHNFYYQEQDEINDKKNLLAIEKICEEYGVSVNINRCNPLAGDPEDSYDVDFIPIGTGKNEIVTFMLEKYNLNTERAIAFGDSGNDVRMLQTVGNGYLLKNATQEAKNLHNLITDSEYSKGITNTLKKLIGFMRRKLEHHHHHH | soluble |
